In the supplement of paper PMC5998384:

Experiments:
HeLa Kyoto [1] = assay: solubility change mitosis vs G1/S (difference of NP-40 vs SDS log2 ratios) (log2 ratio difference); higher = more soluble in mitosis
HeLa Kyoto [2] = assay: solubility in G1/S (NP-40 vs SDS abundance) (log2 ratio); higher = more soluble; conditions: cell cycle stage: G1/S
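Wherever solubility change mitosis vs G1/S (difference of NP-40 vs SDS log2 ratios) is given: synchronized HeLa Kyoto cells (double thymidine block for G1/S, nocodazole release for mitosis), protein amounts in NP-40 versus SDS lysates quantified by mass spectrometry, three biological replicates.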
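Wherever solubility in G1/S (NP-40 vs SDS abundance) is given: HeLa Kyoto cells arrested at G1/S by double thymidine block, proteins quantified by TMT10plex mass spectrometry in mild NP-40 versus SDS extracts, three biological replicates.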

Chain of HOXC10 (chain, as listed by the source): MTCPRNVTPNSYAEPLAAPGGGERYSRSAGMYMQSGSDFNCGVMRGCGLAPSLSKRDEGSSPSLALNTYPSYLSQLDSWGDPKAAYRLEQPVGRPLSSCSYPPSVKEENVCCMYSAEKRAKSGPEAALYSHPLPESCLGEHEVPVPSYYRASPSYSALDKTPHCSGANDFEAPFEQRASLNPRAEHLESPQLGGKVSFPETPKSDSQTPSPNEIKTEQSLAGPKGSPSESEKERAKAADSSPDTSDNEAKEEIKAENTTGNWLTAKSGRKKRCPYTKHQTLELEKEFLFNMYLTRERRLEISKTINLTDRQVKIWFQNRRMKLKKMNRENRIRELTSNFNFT

| Substance | solubility change mitosis (log2) (HeLa Kyoto [1]) | solubility in G1/S (log2) (HeLa Kyoto [2]) |
| --- | --- | --- |
| MDTDSQRSHLSSFTMKLMDKFHSPKIKRTPSKKGKPAEVSVKIPEKPVNKEATDRFLPEGYPLPLDLEQQAVEFMSTSAVASRSQRQKNLSWLEEKEKEVVSALRYFKTIVDKMAIDKKVLEMLPGSASKVLEAILPLVQNDPRIQHSSALSSCYSRVYQSLANLIRWSDQVMLEGVNSEDKEMVTTVKGVIKAVLDGVKELVRLTIEKQGRPSPTSPVKPSSPASKPDGPAELPLTDREVEILNKTTGMSQSTELLPDATDEEVAPPKPPLPGIRVVDNSPPPALPPKKRQSAPSPTRVAVVAPMSRATSGSSLPVGINRQDFDVDCYAQRRLSGGSHSYGGESPRLSPCSSIGKLSKSDEQLSSLDRDSGQCSRNTSCETLDHYDPDYEFLQQDLSNADQIPQQTAWNLSPLPESLGESGSPFLGPPFQLPLGGHPQPDGPLAPGQQTDTPPALPEKKRRSAASQTADGSGCRVSYERHPSQYDNISGEDLQSTAPIPSVPYAPFAAILPFQHGGSSAPVEFVGDFTAPESTGDPEKPPPLPEKKNKHMLAYMQLLEDYSEPQPSMFYQTPQNEHIYQQKNKLLMEVYGFSDSFSGVDSVQELAPPPALPPKQRQLEPPAGKDGHPRDPSAVSGVPGKDSRDGSERAPKSPDALESAQSEEEVDELSLIDHNEIMSRLTLKQEGDDGPDVRGGSGDILLVHATETDRKDLVLYCEAFLTTYRTFISPEELIKKLQYRYEKFSPFADTFKKRVSKNTFFVLVRVVDELCLVELTEEILKLLMELVFRLVCNGELSLARVLRKNILDKVDQKKLLRCATSSQPLAARGVAARPGTLHDFHSHEIAEQLTLLDAELFYKIEIPEVLLWAKEQNEEKSPNLTQFTEHFNNMSYWVRSIIMLQEKAQDRERLLLKFIKIMKHLRKLNNFNSYLAILSALDSAPIRRLEWQKQTSEGLAEYCTLIDSSSSFRAYRAALSEVEPPCIPYLGLILQDLTFVHLGNPDYIDGKVNFSKRWQQFNILDSMRCFQQAHYDMRRNDDIINFFNDFSDHLAEEALWELSLKIKPRNITRRKTDREEKT [RAPGEF1] | 0.157 | -0.18 |
| MPDNRQPRNRQPRIRSGNEPRSAPAMEPDGRGAWAHSRAALDRLEKLLRCSRCTNILREPVCLGGCEHIFCSNCVSDCIGTGCPVCYTPAWIQDLKINRQLDSMIQLCSKLRNLLHDNELSDLKEDKPRKSLFNDAGNKKNSIKMWFSPRSKKVRYVVSKASVQTQPAIKKDASAQQDSYEFVSPSPPADVSERAKKASARSGKKQKKKTLAEINQKWNLEAEKEDGEFDSKEESKQKLVSFCSQPSVISSPQINGEIDLLASGSLTESECFGSLTEVSLPLAEQIESPDTKSRNEVVTPEKVCKNYLTSKKSLPLENNGKRGHHNRLSSPISKRCRTSILSTSGDFVKQTVPSENIPLPECSSPPSCKRKVGGTSGRKNSNMSDEFISLSPGTPPSTLSSSSYRRVMSSPSAMKLLPNMAVKRNHRGETLLHIASIKGDIPSVEYLLQNGSDPNVKDHAGWTPLHEACNHGHLKVVELLLQHKALVNTTGYQNDSPLHDAAKNGHVDIVKLLLSYGASRNAVNIFGLRPVDYTDDESMKSLLLLPEKNESSSASHCSVMNTGQRRDGPLVLIGSGLSSEQQKMLSELAVILKAKKYTEFDSTVTHVVVPGDAVQSTLKCMLGILNGCWILKFEWVKACLRRKVCEQEEKYEIPEGPRRSRLNREQLLPKLFDGCYFYLWGTFKHHPKDNLIKLVTAGGGQILSRKPKPDSDVTQTINTVAYHARPDSDQRFCTQYIIYEDLCNYHPERVRQGKVWKAPSSWFIDCVMSFELLPLDS [BARD1] | 0.187 | -0.332 |
| MWVNPEEVLLANALWITERANPYFILQRRKGHAGDGGGGGGLAGLLVGTLDVVLDSSARVAPYRILYQTPDSLVYWTIACGGSRKEITEHWEWLEQNLLQTLSIFENENDITTFVRGKIQGIIAEYNKINDVKEDDDTEKFKEAIVKFHRLFGMPEEEKLVNYYSCSYWKGKVPRQGWMYLSINHLCFYSFLMGREAKLVIRWVDITQLEKNATLLLPDVIKVSTRSSEHFFSVFLNINETFKLMEQLANIAMRQLLDNEGFEQDRSLPKLKRKSPKKVSALKRDLDARAKSERYRALFRLPKDEKLDGHTDCTLWTPFNKMHILGQMFVSTNYICFTSKEENLCSLIIPLREVTIVEKADSSSVLPSPLSISTRNRMTFLFANLKDRDFLVQRISDFLQQTTSKIYSDKEFAGSYNSSDDEVYSRPSSLVSSSPQRSTSSDADGERQFNLNGNSVPTATQTLMTMYRRRSPEEFNPKLAKEFLKEQAWKIHFAEYGQGICMYRTEKTRELVLKGIPESMRGELWLLLSGAINEKATHPGYYEDLVEKSMGKYNLATEEIERDLHRSLPEHPAFQNEMGIAALRRVLTAYAFRNPNIGYCQAMNIVTSVLLLYAKEEEAFWLLVALCERMLPDYYNTRVVGALVDQGVFEELARDYVPQLYDCMQDLGVISTISLSWFLTLFLSVMPFESAVVVVDCFFYEGIKVIFQLALAVLDANVDKLLNCKDDGEAMTVLGRYLDSVTNKDSTLPPIPHLHSLLSDDVEPYPEVDIFRLIRTSYEKFGTIRADLIEQMRFKQRLKVIQTLEDTTKRNVVRTIVTETSFTIDELEELYALFKAEHLTSCYWGGSSNALDRHDPSLPYLEQYRIDFEQFKGMFALLFPWACGTHSDVLASRLFQLLDENGDSLINFREFVSGLSAACHGDLTEKLKLLYKMHVLPEPSSDQDEPDSAFEATQYFFEDITPECTHVVGLDSRSKQGADDGFVTVSLKPDKGKRANSQENRNYLRLWTPENKSKSKNAKDLPKLNQGQFIELCKTMYNMFSEDPNEQELYHATAAVTSLLLEIGEVGKLFVAQPAKEGGSGGSGPSCHQGIPGVLFPKKGPGQPYVVESVEPLPASLAPDSEEHSLGGQMEDIKLEDSSPRDNGACSSMLISDDDTKDDSSMSSYSVLSAGSHEEDKLHCEDIGEDTVLVRSGQGTAALPRSTSLDRDWAITFEQFLASLLTEPALVKYFDKPVCMMARITSAKNIRMMGKPLTSASDYEISAMSG [TBC1D9] | 0.38 | -0.4 |
| MTSKGPEEEHPSVTLFRQYLRIRTVQPKPDYGAAVAFFEETARQLGLGCQKVEVAPGYVVTVLTWPGTNPTLSSILLNSHTDVVPVFKEHWSHDPFEAFKDSEGYIYARGAQDMKCVSIQYLEAVRRLKVEGHRFPRTIHMTFVPDEEVGGHQGMELFVQRPEFHALRAGFALDEGIANPTDAFTVFYSERSPWWVRVTSTGRPGHASRFMEDTAAEKLHKVVNSILAFREKEWQRLQSNPHLKEGSVTSVNLTKLEGGVAYNVIPATMSASFDFRVAPDVDFKAFEEQLQSWCQAAGEGVTLEFAQKWMHPQVTPTDDSNPWWAAFSRVCKDMNLTLEPEIMPAATDNRYIRAVGVPALGFSPMNRTPVLLHDHDERLHEAVFLRGVDIYTRLLPALASVPALPSDS [ACY1] | -0.0632 | 0.288 |
| MPNFSGNWKIIRSENFEELLKVLGVNVMLRKIAVAAASKPAVEIKQEGDTFYIKTSTTVRTTEINFKVGEEFEEQTVDGRPCKSLVKWESENKMVCEQKLLKGEGPKTSWTRELTNDGELILTMTADDVVCTRVYVRE [CRABP2] | -0.109 | -0.0816 |
| MAALKEDRSYGLSCGRVSDGSKVSVFHVKLTDSALRAFESYRARQDSVSLRPSIRFQGSQGHISIPQPDCPAEARTFSFYLSNIGRDNPQGSFDCIQQYVSSHGEVHLDCLGSIQDKITVCATDDSYQKARQSMAQAEEETRSRSAIVIKAGGRYLGKKVQFRKPAPGATDAVPSRKRATPINLASAIRKSGASAVSGGSGVSQRPFRDRVLHLLALRPYRKAELLLRLQKDGLTQADKDALDGLLQQVANMSAKDGTCTLQDCMYKDVQKDWPGYSEGDQQLLKRVLVRKLCQPQSTGSLLGDPAASSPPGERGRSASPPQKRLQPPDFIDPLANKKPRISHFTQRAQPAVNGKLGVPNGREALLPTPGPPASTDTLSSSTHLPPRLEPPRAHDPLADVSNDLGHSGRDCEHGEAAAPAPTVRLGLPLLTDCAQPSRPHGSPSRSKPKKKSKKHKDKERAAEDKPRAQLPDCAPATHATPGAPADTPGLNGTCSVSSVPTSTSETPDYLLKYAAISSSEQRQSYKNDFNAEYSEYRDLHARIERITRRFTQLDAQLRQLSQGSEEYETTRGQILQEYRKIKKTNTNYSQEKHRCEYLHSKLAHIKRLIAEYDQRQLQAWP | 0.218 | -0.0524 |
| MAGTALKRLMAEYKQLTLNPPEGIVAGPMNEENFFEWEALIMGPEDTCFEFGVFPAILSFPLDYPLSPPKMRFTCEMFHPNIYPDGRVCISILHAPGDDPMGYESSAERWSPVQSVEKILLSVVSMLAEPNDESGANVDASKMWRDDREQFYKIAKQIVQKSLGL [UBE2G2] | 0.17 | 0.6 |
| MVKLIHTLADHGDDVNCCAFSFSLLATCSLDKTIRLYSLRDFTELPHSPLKFHTYAVHCCCFSPSGHILASCSTDGTTVLWNTENGQMLAVMEQPSGSPVRVCQFSPDSTCLASGAADGTVVLWNAQSYKLYRCGSVKDGSLAACAFSPNGSFFVTGSSCGDLTVWDDKMRCLHSEKAHDLGITCCDFSSQPVSDGEQGLQFFRLASCGQDCQVKIWIVSFTHILGFELKYKSTLSGHCAPVLACAFSHDGQMLVSGSVDKSVIVYDTNTENILHTLTQHTRYVTTCAFAPNTLLLATGSMDKTVNIWQFDLETLCQARRTEHQLKQFTEDWSEEDVSTWLCAQDLKDLVGIFKMNNIDGKELLNLTKESLADDLKIESLGLRSKVLRKIEELRTKVKSLSSGIPDEFICPITRELMKDPVIASDGYSYEKEAMENWISKKKRTSPMTNLVLPSAVLTPNRTLKMAINRWLETHQK [WDSUB1] | -0.112 | -0.0154 |
| MNMIWRNSISCLRLGKVPHRYQSGYHPVAPLGSRILTDPAKVFEHNMWDHMQWSKEEEAAARKKVKENSAVRVLLEEQVKYEREASKYWDTFYKIHKNKFFKDRNWLLREFPEILPVDQKPEEKARESSWDHVKTSATNRFSRMHCPTVPDEKNHYEKSSGSSEGQSKTESDFSNLDSEKHKKGPMETGLFPGSNATFRILEVGCGAGNSVFPILNTLENSPESFLYCCDFASGAVELVKSHSSYRATQCFAFVHDVCDDGLPYPFPDGILDVILLVFVLSSIHPDRTLFI [METTL8] | 0.054 | -0.312 |
| HOXC10 | -0.0635 | 0.535 |
| MAVTEASLLRQCPLLLPQNRSKTVYEGFISAQGRDFHLRIVLPEDLQLKNARLLCSWQLRTILSGYHRIVQQRMQHSPDLMSFMMELKMLLEVALKNRQELYALPPPPQFYSSLIEEIGTLGWDKLVYADTCFSTIKLKAEDASGREHLITLKLKAKYPAESPDYFVDFPVPFCASWTPQSSLISIYSQFLAAIESLKAFWDVMDEIDEKTWVLEPEKPPRSATARRIALGNNVSINIEVDPRHPTMLPECFFLGADHVVKPLGIKLSRNIHLWDPENSVLQNLKDVLEIDFPARAILEKSDFTMDCGICYAYQLDGTIPDQVCDNSQCGQPFHQICLYEWLRGLLTSRQSFNIIFGECPYCSKPITLKMSGRKH [FANCL] | 0.0266 | 0.184 |
| MEEVREGHALGGGMEADGPASLQELPPSPRSPSPPPSPPPLPSPPSLPSPAAPEAPELPEPAQPSEAHARQLLLEEWGPLSGGLELPQRLTWKLLLLRRPLYRNLLRSPNPEGINIYEPAPPTGPTQRPLETLGNFRGWYIRTEKLQQNQSWTVKQQCVDLLAEGLWEELLDDEQPAITVMDWFEDSRLDACVYELHVWLLAADRRTVIAQHHVAPRTSGRGPPGRWVQVSHVFRHYGPGVRFIHFLHKAKNRMEPGGLRRTRVTDSSVSVQLRE [NCCRP1] | -0.0982 | 0.178 |
| MADVEDGEETCALASHSGSSGSKSGGDKMFSLKKWNAVAMWSWDVECDTCAICRVQVMDACLRCQAENKQEDCVVVWGECNHSFHNCCMSLWVKQNNRCPLCQQDWVVQRIGK [RNF7] | -0.169 | -0.165 |
